Source: IntAct's records for PubMed 16000308

B1: Melanoma-associated antigen D1 (Homo sapiens), Q9Y5V3 (parent)
chain: MAQKMDCGAGLLGFQAEASVEDSALLMQTLMEAIQISEAPPTNQATAAASPQSSQPPTANEMADIQVSAAAARPKSAFKVQNATTKGPNGVYDFSQAHNAKDVPNTQPKAAFKSQNATPKGPNAAYDFSQAATTGELAANKSEMAFKAQNATTKVGPNATYNFSQSLNANDLANSRPKTPFKAWNDTTKAPTADTQTQNVNQAKMATSQADIETDPGISEPDGATAQTSADGSQAQNLESRTIIRGKRTRKINNLNVEENSSGDQRRAPLAAGTWRSAPVPVTTQNPPGAPPNVLWQTPLAWQNPSGWQNQTARQTPPARQSPPARQTPPAWQNPVAWQNPVIWPNPVIWQNPVIWPNPIVWPGPVVWPNPLAWQNPPGWQTPPGWQTPPGWQGPPDWQGPPDWPLPPDWPLPPDWPLPTDWPLPPDWIPADWPIPPDWQNLRPSPNLRPSPNSRASQNPGAAQPRDVALLQERANKLVKYLMLKDYTKVPIKRSEMLRDIIREYTDVYPEIIERACFVLEKKFGIQLKEIDKEEHLYILISTPESLAGILGTTKDTPKLGLLLVILGVIFMNGNRASEAVLWEALRKMGLRPGVRHPLLGDLRKLLTYEFVKQKYLDYRRVPNSNPPEYEFLWGLRSYHETSKMKVLRFIAEVQKRDPRDWTAQFMEAADEALDALDAAAAEAEARAEARTRMGIGDEAVSGPWSWDDIEFELLTWDEEGDFGDPWSRIPFTFWARYHQNARSRFPQTFAGPIIGPGGTASANFAANFGAIGFFWVE
partner: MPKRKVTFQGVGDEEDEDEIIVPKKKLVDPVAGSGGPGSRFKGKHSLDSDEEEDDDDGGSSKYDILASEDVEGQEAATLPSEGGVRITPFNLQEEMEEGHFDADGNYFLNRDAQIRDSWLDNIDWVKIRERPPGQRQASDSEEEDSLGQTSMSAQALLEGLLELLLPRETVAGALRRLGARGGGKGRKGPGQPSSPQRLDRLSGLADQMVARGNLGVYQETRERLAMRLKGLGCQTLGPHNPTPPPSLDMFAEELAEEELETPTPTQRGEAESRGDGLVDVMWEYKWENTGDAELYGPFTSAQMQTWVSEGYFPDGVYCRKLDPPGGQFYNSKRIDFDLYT

Variants of: B1
Conditions: with cd2b2_human CD2BP2, O95400

For Q387Y, which “effect of a mutation on the interaction” value is on record?
The value was “disrupting interaction strength”.

With Q387C as the variant, how does the “effect of a mutation on the interaction” value read?
Its value is “disrupting interaction strength”.

For Q387E, which “effect of a mutation on the interaction” value is on record?
The value was “disrupting interaction strength”.

Q387A was tested. Which “effect of a mutation on the interaction” value did it give?
Its value is “decreasing interaction strength”.

Q387D was tested. Which “effect of a mutation on the interaction” value did it give?
The value was “disrupting interaction strength”.

Q387W was tested. Which “effect of a mutation on the interaction” value did it give?
Its value is “disrupting interaction strength”.

With G379A as the variant, how does the “effect of a mutation on the interaction” value read?
Its value is “decreasing interaction strength”.

How did the “effect of a mutation on the interaction” value turn out when G379E was run?
Its value is “decreasing interaction strength”.

For G379W, which “effect of a mutation on the interaction” value is on record?
Its value is “decreasing interaction strength”.

Which “effect of a mutation on the interaction” value does the source give for G379C here?
The value was “decreasing interaction strength”.

Which “effect of a mutation on the interaction” value does the source give for G379D here?
The value was “decreasing interaction strength”.

P378W was tested. Which “effect of a mutation on the interaction” value did it give?
Its value is “decreasing interaction strength”.

How did the “effect of a mutation on the interaction” value turn out when P378A was run?
Its value is “decreasing interaction strength”.

P378H was tested. Which “effect of a mutation on the interaction” value did it give?
The value was “decreasing interaction strength”.

How did the “effect of a mutation on the interaction” value turn out when P378G was run?
Its value is “decreasing interaction strength”.

How did the “effect of a mutation on the interaction” value turn out when P378D was run?
Its value is “decreasing interaction strength”.

How did the “effect of a mutation on the interaction” value turn out when P378C was run?
The value was “decreasing interaction strength”.

Which “effect of a mutation on the interaction” value does the source give for P378M here?
Its value is “decreasing interaction strength”.

P378E was tested. Which “effect of a mutation on the interaction” value did it give?
The value was “decreasing interaction strength”.

For W386A, which “effect of a mutation on the interaction” value is on record?
The value was “disrupting interaction strength”.

W386K was tested. Which “effect of a mutation on the interaction” value did it give?
The value was “decreasing interaction strength”.

W386T was tested. Which “effect of a mutation on the interaction” value did it give?
The value was “disrupting interaction strength”.

How did the “effect of a mutation on the interaction” value turn out when W386D was run?
Its value is “disrupting interaction strength”.

W386G was tested. Which “effect of a mutation on the interaction” value did it give?
Its value is “disrupting interaction strength”.

For W386H, which “effect of a mutation on the interaction” value is on record?
The value was “disrupting interaction strength”.

W386N was tested. Which “effect of a mutation on the interaction” value did it give?
Its value is “disrupting interaction strength”.

How did the “effect of a mutation on the interaction” value turn out when W386V was run?
Its value is “disrupting interaction strength”.

W386I was tested. Which “effect of a mutation on the interaction” value did it give?
The value was “decreasing interaction strength”.

Which “effect of a mutation on the interaction” value does the source give for W386E here?
The value was “disrupting interaction strength”.

Which “effect of a mutation on the interaction” value does the source give for W386P here?
Its value is “decreasing interaction strength”.

For W386M, which “effect of a mutation on the interaction” value is on record?
The value was “decreasing interaction strength”.

Which “effect of a mutation on the interaction” value does the source give for W386S here?
Its value is “decreasing interaction strength”.

With W386C as the variant, how does the “effect of a mutation on the interaction” value read?
Its value is “disrupting interaction strength”.

With T388E as the variant, how does the “effect of a mutation on the interaction” value read?
Its value is “decreasing interaction strength”.

T388D was tested. Which “effect of a mutation on the interaction” value did it give?
The value was “decreasing interaction strength”.

For T388C, which “effect of a mutation on the interaction” value is on record?
Its value is “decreasing interaction strength”.

With T382M as the variant, how does the “effect of a mutation on the interaction” value read?
Its value is “decreasing interaction strength”.

Which “effect of a mutation on the interaction” value does the source give for T382D here?
The value was “disrupting interaction strength”.

For T382C, which “effect of a mutation on the interaction” value is on record?
Its value is “disrupting interaction strength”.

For T382N, which “effect of a mutation on the interaction” value is on record?
The value was “decreasing interaction strength”.

How did the “effect of a mutation on the interaction” value turn out when T382E was run?
Its value is “disrupting interaction strength”.

T382L was tested. Which “effect of a mutation on the interaction” value did it give?
The value was “disrupting interaction strength”.

P383S was tested. Which “effect of a mutation on the interaction” value did it give?
Its value is “disrupting interaction strength”.

For P383Y, which “effect of a mutation on the interaction” value is on record?
The value was “disrupting interaction strength”.

P383L was tested. Which “effect of a mutation on the interaction” value did it give?
Its value is “disrupting interaction strength”.

Which “effect of a mutation on the interaction” value does the source give for P383G here?
The value was “disrupting interaction strength”.

Which “effect of a mutation on the interaction” value does the source give for P383M here?
The value was “disrupting interaction strength”.

For P383R, which “effect of a mutation on the interaction” value is on record?
Its value is “disrupting interaction strength”.

Which “effect of a mutation on the interaction” value does the source give for P383Q here?
Its value is “disrupting interaction strength”.

How did the “effect of a mutation on the interaction” value turn out when P383I was run?
Its value is “disrupting interaction strength”.

P383A was tested. Which “effect of a mutation on the interaction” value did it give?
Its value is “disrupting interaction strength”.

P383N was tested. Which “effect of a mutation on the interaction” value did it give?
The value was “disrupting interaction strength”.

For P383W, which “effect of a mutation on the interaction” value is on record?
Its value is “disrupting interaction strength”.

P383H was tested. Which “effect of a mutation on the interaction” value did it give?
Its value is “disrupting interaction strength”.

P383K was tested. Which “effect of a mutation on the interaction” value did it give?
Its value is “disrupting interaction strength”.

For P383T, which “effect of a mutation on the interaction” value is on record?
Its value is “disrupting interaction strength”.

For P383F, which “effect of a mutation on the interaction” value is on record?
The value was “disrupting interaction strength”.

For P383C, which “effect of a mutation on the interaction” value is on record?
The value was “disrupting interaction strength”.

P383V was tested. Which “effect of a mutation on the interaction” value did it give?
Its value is “disrupting interaction strength”.

P383D was tested. Which “effect of a mutation on the interaction” value did it give?
Its value is “disrupting interaction strength”.

P383E was tested. Which “effect of a mutation on the interaction” value did it give?
The value was “disrupting interaction strength”.

How did the “effect of a mutation on the interaction” value turn out when G385W was run?
Its value is “disrupting interaction strength”.

G385N was tested. Which “effect of a mutation on the interaction” value did it give?
Its value is “disrupting interaction strength”.

For G385L, which “effect of a mutation on the interaction” value is on record?
Its value is “disrupting interaction strength”.

Which “effect of a mutation on the interaction” value does the source give for G385I here?
Its value is “disrupting interaction strength”.

Which “effect of a mutation on the interaction” value does the source give for G385K here?
Its value is “disrupting interaction strength”.

How did the “effect of a mutation on the interaction” value turn out when G385M was run?
The value was “disrupting interaction strength”.

Which “effect of a mutation on the interaction” value does the source give for G385Y here?
The value was “disrupting interaction strength”.

With G385D as the variant, how does the “effect of a mutation on the interaction” value read?
Its value is “disrupting interaction strength”.

With G385E as the variant, how does the “effect of a mutation on the interaction” value read?
The value was “disrupting interaction strength”.

For G385T, which “effect of a mutation on the interaction” value is on record?
Its value is “disrupting interaction strength”.

How did the “effect of a mutation on the interaction” value turn out when G385R was run?
The value was “decreasing interaction strength”.

With G385C as the variant, how does the “effect of a mutation on the interaction” value read?
The value was “disrupting interaction strength”.

With G385F as the variant, how does the “effect of a mutation on the interaction” value read?
The value was “disrupting interaction strength”.

G385P was tested. Which “effect of a mutation on the interaction” value did it give?
Its value is “decreasing interaction strength”.

With G385S as the variant, how does the “effect of a mutation on the interaction” value read?
The value was “disrupting interaction strength”.

G385A was tested. Which “effect of a mutation on the interaction” value did it give?
Its value is “disrupting interaction strength”.

How did the “effect of a mutation on the interaction” value turn out when G385Q was run?
The value was “disrupting interaction strength”.

For G385H, which “effect of a mutation on the interaction” value is on record?
Its value is “disrupting interaction strength”.

For P384L, which “effect of a mutation on the interaction” value is on record?
Its value is “disrupting interaction strength”.

How did the “effect of a mutation on the interaction” value turn out when P384M was run?
The value was “disrupting interaction strength”.

P384N was tested. Which “effect of a mutation on the interaction” value did it give?
Its value is “disrupting interaction strength”.

How did the “effect of a mutation on the interaction” value turn out when P384H was run?
Its value is “disrupting interaction strength”.

Which “effect of a mutation on the interaction” value does the source give for P384Q here?
The value was “disrupting interaction strength”.

With P384W as the variant, how does the “effect of a mutation on the interaction” value read?
The value was “disrupting interaction strength”.

Which “effect of a mutation on the interaction” value does the source give for P384T here?
The value was “disrupting interaction strength”.

Which “effect of a mutation on the interaction” value does the source give for P384F here?
The value was “disrupting interaction strength”.

With P384E as the variant, how does the “effect of a mutation on the interaction” value read?
The value was “disrupting interaction strength”.

How did the “effect of a mutation on the interaction” value turn out when P384A was run?
Its value is “disrupting interaction strength”.

P384C was tested. Which “effect of a mutation on the interaction” value did it give?
The value was “disrupting interaction strength”.

P384R was tested. Which “effect of a mutation on the interaction” value did it give?
Its value is “disrupting interaction strength”.

P384V was tested. Which “effect of a mutation on the interaction” value did it give?
The value was “disrupting interaction strength”.

How did the “effect of a mutation on the interaction” value turn out when P384I was run?
The value was “disrupting interaction strength”.

With P384G as the variant, how does the “effect of a mutation on the interaction” value read?
The value was “disrupting interaction strength”.

P384S was tested. Which “effect of a mutation on the interaction” value did it give?
Its value is “disrupting interaction strength”.

Which “effect of a mutation on the interaction” value does the source give for P384D here?
The value was “disrupting interaction strength”.

For P384K, which “effect of a mutation on the interaction” value is on record?
Its value is “disrupting interaction strength”.

P384Y was tested. Which “effect of a mutation on the interaction” value did it give?
The value was “disrupting interaction strength”.

With W380A as the variant, how does the “effect of a mutation on the interaction” value read?
Its value is “decreasing interaction strength”.

Which “effect of a mutation on the interaction” value does the source give for W380D here?
Its value is “decreasing interaction strength”.

Which “effect of a mutation on the interaction” value does the source give for W380E here?
The value was “disrupting interaction strength”.

Which “effect of a mutation on the interaction” value does the source give for Q381E here?
The value was “decreasing interaction strength”.

With Q381Y as the variant, how does the “effect of a mutation on the interaction” value read?
The value was “decreasing interaction strength”.

With Q381D as the variant, how does the “effect of a mutation on the interaction” value read?
Its value is “decreasing interaction strength”.

How did the “effect of a mutation on the interaction” value turn out when Q381C was run?
Its value is “decreasing interaction strength”.
